Laboratory results: US20240200089A1 (AGRIVIDA, published 2024)

T1: chicken interleukin 10 (chicken (Gallus gallus), UniProt Q6A2H4 22-174)
T1 construct: also called cIL-10; cIL10
T1 sequence: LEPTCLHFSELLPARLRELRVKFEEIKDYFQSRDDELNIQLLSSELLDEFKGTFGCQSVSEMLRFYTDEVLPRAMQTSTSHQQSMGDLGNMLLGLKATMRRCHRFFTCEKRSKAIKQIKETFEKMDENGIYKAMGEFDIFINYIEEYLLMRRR


Assays:
[1] = molecular target: T1, chicken interleukin 10; assay: ELISA, sdAB titrated on cIL-10 coated plates
[2] = molecular target: T1, chicken interleukin 10; assay: cell-based or functional assay

EC50 [1] | apparent EC50, recovery of IFN-γ secretion in primary chicken spleen cells treated with ConA and cIL-10 [2] | Binder
~100 nM | – | chIL10sdAB1D6 (VHH, Llama single domain antibody; The construct used in the ELISA is not described; also called 44-IL-bR2-1D6) VHH: QVQLQASGGGLVQAGGSLRLSCQASESISSINTMGWFRQASGEEREFVAAIESGGATAYAESAKGRFTISRDNAKNTVYLQMNSLKPEDTAVYYCAAGVPTYDDDAMPISWRFWGRGTLVTVSS
~15 nM | 60 nM | chIL10sdAB1F11 (VHH, not shown: small tags and cut ends, Llama single domain antibody; also called 86-IL-bR2-1F11) VHH: QVQLQEFGGGLVQPGGSLRLSCAASGRTGSSYAMGWFRQAPGKEREFVAAISWSGGSTDYADSVKGRFTISRDNAKNTMYLQMNSLKPEDTAVYYCAVDRNLFKLRVAVQEYTNLGQGTQVTVSS
~35 nM | 40 nM | chIL10sdAB1B9 (VHH, Llama single domain antibody; The construct used in the ELISA and the cell assay is not described) VHH: QVQLQESGGGLVQAGGSLRLSCAASGRTFSSYAWGWFRQAPGKEREFVARISFSGGHTYYSDSVKGRFTISRDNAKNTVYLQMNSLKPEDTAVYYCAADPTPYGLRNERNYPYWGQGTQVTVSS
20 nM | – | chIL10sdAB1H1 (VHH, Llama single domain antibody; The construct used in the ELISA is not described) VHH: QVQLQASGGGLVQAGGSLRLSCAASGRTFNSYAWGWFRQAPGKERGFVARISFSGGHTYYSDSVKGRFTISRDNAKNSVYLQMNSLKPEDTAVYYCAADPTPYGLRNERNYHYWGQGTQVTVSS
~1 nM | 25 nM | chIL10sdAB1A11 (VHH, not shown: small tags and cut ends, Llama single domain antibody; also called 1A11 sdAB; 81-IL-bR2-1A11) VHH: QVQLQESGGGLVQPGGSLRLSCAASGNIFSINTMGWYRQAPGKQRELVASITTGGTTNYEDSVKGRFTISRDNAKKTVYLQMNRLKPEDTAVYYCNHRRSYSGRDYPVYGMDYWGKGTLVTVSS
